In publication PMC6062497:
“And” between values parts separate entries of the source, which are not always exact repeats. Equal entries are not always repeated.

Target: TRAIL receptors on SK-Mel-3 cells
Settings: ligand

For “GpL-FLAG-TNC-TRAIL (from UniProt P10039)”, the Kd was 4.82 nM and 2.32 nM.
